# In the supplement of paper PMC9112550, “Optimization of the antimicrobial peptide Bac7 by deep mutational scanning” (BMC Biology, 2022):
# Tested on: Escherichia coli TOP10
# Test: shrunken log2 fold change of peptide-encoding DNA abundance (4.5 h post-induction vs induction); higher = less antimicrobial activity (less host growth inhibition)
# Settings: time post-induction: 4.5 h; library: site-saturation at positions 5, 18, 19, 20
# 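Further: peptides expressed intracellularly from a pBAD plasmid library in pooled LB shake-flask culture, induced with 0.3% L-arabinose, DNA abundance read by NGS, three biological replicates, DESeq2 with apeglm shrinkage.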
row,Sequence,shrunken log2 fold change
1,RRIRPRPPRLPRPRPRPMQTPRP,0.119
2,RRIRTRPPRLPRPRPRPPGYPRP,0.0573
3,RRIRWRPPRLPRPRPRPRNPPRP,0.113
4,RRIRARPPRLPRPRPRPFMIPRP,-0.1
5,RRIRRRPPRLPRPRPRPKLYPRP,0.174
6,RRIRCRPPRLPRPRPRPHDNPRP,-0.356
7,RRIRFRPPRLPRPRPRPRACPRP,0.165
8,RRIRQRPPRLPRPRPRPWDWPRP,0.0372
9,RRIRCRPPRLPRPRPRPSPRPRP,0.485
10,RRIRLRPPRLPRPRPRPWWSPRP,-0.0019
11,RRIRHRPPRLPRPRPRPTNPPRP,-0.363
12,RRIRWRPPRLPRPRPRPEMYPRP,0.144
13,RRIRPRPPRLPRPRPRPMDYPRP,-0.165
14,RRIRLRPPRLPRPRPRPCFTPRP,-0.497
15,RRIRDRPPRLPRPRPRPMIEPRP,0.0558
16,RRIRTRPPRLPRPRPRPNMTPRP,-0.0848
17,RRIRMRPPRLPRPRPRPKQEPRP,3.07
18,RRIRDRPPRLPRPRPRPVWKPRP,-0.0168
19,RRIRYRPPRLPRPRPRPYDSPRP,-0.0285
20,RRIRARPPRLPRPRPRPPHDPRP,1.02
21,RRIRSRPPRLPRPRPRPKYVPRP,-0.527
22,RRIRNRPPRLPRPRPRPHHWPRP,-0.0959

row,Sequence,shrunken log2 fold change
1,RRIRERPPRLPRPRPRPCVSPRP,-0.0843
2,RRIRNRPPRLPRPRPRPSKWPRP,-0.213
3,RRIRIRPPRLPRPRPRPRFNPRP,-0.173
4,RRIRARPPRLPRPRPRPAPAPRP,0.922
5,RRIRKRPPRLPRPRPRPHVAPRP,0.0884
6,RRIRFRPPRLPRPRPRPYWCPRP,-0.399
7,RRIRFRPPRLPRPRPRPYVAPRP,-0.62
8,RRIRFRPPRLPRPRPRPARYPRP,0.153
9,RRIRPRPPRLPRPRPRPTVMPRP,0.0636
10,RRIRIRPPRLPRPRPRPHCFPRP,-0.824
11,RRIRIRPPRLPRPRPRPVKQPRP,0.101
12,RRIRNRPPRLPRPRPRPIPPPRP,-0.0301
13,RRIRNRPPRLPRPRPRPCVCPRP,-0.00201
14,RRIRMRPPRLPRPRPRPNYNPRP,-0.678
15,RRIRIRPPRLPRPRPRPEHGPRP,-0.0885
16,RRIRVRPPRLPRPRPRPLEWPRP,-0.0248
17,RRIRKRPPRLPRPRPRPRKMPRP,0.588
18,RRIRQRPPRLPRPRPRPEIVPRP,0.143
19,RRIRQRPPRLPRPRPRPIVTPRP,-0.364
20,RRIRVRPPRLPRPRPRPGTHPRP,-0.056
21,RRIRIRPPRLPRPRPRPFFWPRP,0.364
22,RRIRDRPPRLPRPRPRPQNVPRP,-0.01

row,Sequence,shrunken log2 fold change
1,RRIRHRPPRLPRPRPRPPWNPRP,-0.0664
2,RRIRRRPPRLPRPRPRPTQWPRP,0.183
3,RRIRGRPPRLPRPRPRPRPGPRP,1.34
4,RRIRTRPPRLPRPRPRPKHCPRP,-0.0769
5,RRIRARPPRLPRPRPRPAFAPRP,0.685
6,RRIRCRPPRLPRPRPRPGNHPRP,-0.587
7,RRIRWRPPRLPRPRPRPLQRPRP,0.189
8,RRIRVRPPRLPRPRPRPWSWPRP,0.15
9,RRIRPRPPRLPRPRPRPWMPPRP,-0.00504
10,RRIRCRPPRLPRPRPRPYEHPRP,-0.554
11,RRIRYRPPRLPRPRPRPLCNPRP,-0.0925
12,RRIRLRPPRLPRPRPRPVCMPRP,-0.246
13,RRIRLRPPRLPRPRPRPDGAPRP,0.0651
14,RRIRGRPPRLPRPRPRPLIWPRP,0.602
15,RRIRARPPRLPRPRPRPYCWPRP,-0.258
16,RRIRKRPPRLPRPRPRPYHFPRP,-0.031
17,RRIRPRPPRLPRPRPRPKHQPRP,0.0315
18,RRIRTRPPRLPRPRPRPKYEPRP,-0.144
19,RRIRLRPPRLPRPRPRPCKLPRP,-0.114
20,RRIRARPPRLPRPRPRPPDLPRP,0.829
21,RRIRCRPPRLPRPRPRPAPKPRP,1.02
22,RRIRDRPPRLPRPRPRPWWMPRP,0.0169

row,Sequence,shrunken log2 fold change
1,RRIRTRPPRLPRPRPRPWEGPRP,0.0154
2,RRIRNRPPRLPRPRPRPSGKPRP,0.0521
3,RRIRSRPPRLPRPRPRPNINPRP,-0.612
4,RRIRERPPRLPRPRPRPRAIPRP,0.0706
5,RRIRHRPPRLPRPRPRPQNKPRP,-0.654
6,RRIRIRPPRLPRPRPRPRFEPRP,0.131
7,RRIRLRPPRLPRPRPRPGHNPRP,-0.371
8,RRIRHRPPRLPRPRPRPAVLPRP,0.0684
9,RRIRSRPPRLPRPRPRPEFPPRP,0.123
10,RRIRKRPPRLPRPRPRPITPPRP,0.0433
11,RRIRERPPRLPRPRPRPYKMPRP,-0.0803
12,RRIRVRPPRLPRPRPRPQAQPRP,0.173
13,RRIRRRPPRLPRPRPRPPIPPRP,0.271
14,RRIRLRPPRLPRPRPRPLHSPRP,-0.0843
15,RRIRYRPPRLPRPRPRPFAMPRP,-0.844
16,RRIRERPPRLPRPRPRPKAQPRP,0.221
17,RRIRFRPPRLPRPRPRPQIWPRP,-0.0457
18,RRIRMRPPRLPRPRPRPYNDPRP,0.0185
19,RRIRHRPPRLPRPRPRPIMHPRP,-0.375
20,RRIRWRPPRLPRPRPRPSDTPRP,0.0558
21,RRIRIRPPRLPRPRPRPCITPRP,-0.0326
22,RRIRKRPPRLPRPRPRPEQGPRP,0.199

row,Sequence,shrunken log2 fold change
1,RRIRWRPPRLPRPRPRPCRDPRP,-0.0737
2,RRIRVRPPRLPRPRPRPRYSPRP,-0.911
3,RRIRCRPPRLPRPRPRPTRQPRP,0.503
4,RRIRVRPPRLPRPRPRPCWNPRP,0.0501
5,RRIRQRPPRLPRPRPRPGVLPRP,0.0476
6,RRIRERPPRLPRPRPRPVYGPRP,-0.375
7,RRIRSRPPRLPRPRPRPPDTPRP,0.237
8,RRIRARPPRLPRPRPRPNVMPRP,0.153
9,RRIRMRPPRLPRPRPRPIKWPRP,-0.00876
10,RRIRWRPPRLPRPRPRPVAKPRP,0.404
11,RRIRTRPPRLPRPRPRPIICPRP,-0.121
12,RRIRARPPRLPRPRPRPRQKPRP,0.055
13,RRIRPRPPRLPRPRPRPDCYPRP,-0.0771
14,RRIRARPPRLPRPRPRPPGLPRP,0.517
15,RRIRFRPPRLPRPRPRPHFEPRP,-0.185
16,RRIRQRPPRLPRPRPRPCCSPRP,-0.0854
17,RRIRWRPPRLPRPRPRPMVPPRP,-0.0589
18,RRIRSRPPRLPRPRPRPFQMPRP,0.00561
19,RRIRPRPPRLPRPRPRPPKYPRP,-0.148
20,RRIRPRPPRLPRPRPRPVAIPRP,-0.0776
21,RRIRDRPPRLPRPRPRPMCSPRP,0.261
